Positions count from the first letter of the chain named.
B1: SP31P (VHH)
VHH: EVQLVESGGGLVQAGGSLRLSCAASRGTFGTYIMGWFRQAPGKEREFVAAISWRGANTYYGYSVKGRFTISRDNAKNTMYLQMADLKPEDTADYYCGVHLNGTPYYYASGYRYWGQGTQVTVSS
B2: SP30P (VHH)
VHH: B1 VHH with Y32D
B3: SP27P (VHH)
VHH: EVQLVESGGGLVQIGDSLRLSCAASGGTFNRYGMGWFRQAPGKEREFVAAIRWDGVDTNYADFVKGRFTISRYNAKNTAYLQMNSLKPEDTAVYYCAADRRGLYTKHAHRYDYWGQGTQVTVSS
B4: SP36P (VHH)
VHH: EVQLVESGGGLVQAGGSLRLSCTPSITTAGTTIMAWFRQAPGNEREFVAAIWGSKTAYGDSMKGRLTISRDNVRDNGQKTVFLQMNNLQLQDTATYYCAASSGGYVHSSTSYEIWGRGTQVTVSS
B5: SP28P (VHH)
VHH: EVQLVESGGGLVQAGGSLRLSCAASGSIVSFNGINWYRQAPGKQREWVGGITQGGNTMYADSVRGRFTISRDNTKNTMYLQMNSLKPEDTAVYYCRRPPVASWGQGTQVTVSS
B6: SP01P (VHH)
VHH: EVQLVESGGGLAQAGGSLRLSCVASGNIDSANGMAWYRQAPGKQRELVAHITSGTSYYVASVEGRFTISRANAKDTWYLQMNSLKPEDTGVYYCFPIGLSAHWSQGTQVTVSS
B7: SP13P (VHH)
VHH: EVQLVESGGGLVQPGGSLRLSCAASESIFSINYMAWYRQAPGKQRELVAFSIDGSSTNYVDSVRGRFTASRDNAENTLYLQMNSLKPEDTAVYYCYAQGNTWAAGVWGQGTQVTVSS
B8: SP26P (VHH)
VHH: EVQLVESGGGLVQAGGSLRLSCAASGRSFSSSVMGWFRQTPGKEREFVAATRWTAASTHYADSVKGRFTISRDHAENAVFLQMNSLKPEDTAVYYCAAGNYLDTAQYRYNYWGQGTQVTVSS
modifications: In the competition assay the reporter copy carried IRDye800 on the C-terminal cysteine, which is not in the letters.
B9: SP02P (VHH)
VHH: EVQLVESGGGLVQAGGSLRLSCAASESISSIEQMGWFRQAPGKQRALVAINTYGGRTVYTNSVEGRFTMSRDSAKNMVYLQMTSLEPEDTAVYYCYAQTTAWRGGVWGQGTQVTVSS
B10: SP14P (VHH)
VHH: EVQLVESGGGLVQAGDSLRLSCVVSGLTFSRYGMGWFRQATGKEREFVGGISVGSSGTMYPNSVKGRFTISRDNAKSTVYLQMNSLKPEDTAVYFCAAIDQGSFVQQRDYRYWGQGTQVTVSS
B11: SP05P (VHH)
VHH: EVQLVESGGGLVQAGGSLRLSCAASGRTSFSGYAMAWFRQAPGKERDFVASITWSYGYTYYTDSAQGRFTISRDSAKNTVYLEMNSLKPEDTAVYYCAADPKASRFRILREYAYWGQGTQVTVSS
B12: SP20P (VHH)
VHH: EVQLVESGGGLVQAGGSLRLSCVISGRTSPTYPMGWFRQSPGNEREFVASINWSGGWRNYADSVKDRFTISRDDAKNTVYLQMNSLKPEDTAVYYCARGQYSSGTPVYAHEYAYWGQGTQVTVSS

Target: T1, recombinant rPDGFRB ectodomain (rat, UniProt Q05030 32-531)
T1 chain: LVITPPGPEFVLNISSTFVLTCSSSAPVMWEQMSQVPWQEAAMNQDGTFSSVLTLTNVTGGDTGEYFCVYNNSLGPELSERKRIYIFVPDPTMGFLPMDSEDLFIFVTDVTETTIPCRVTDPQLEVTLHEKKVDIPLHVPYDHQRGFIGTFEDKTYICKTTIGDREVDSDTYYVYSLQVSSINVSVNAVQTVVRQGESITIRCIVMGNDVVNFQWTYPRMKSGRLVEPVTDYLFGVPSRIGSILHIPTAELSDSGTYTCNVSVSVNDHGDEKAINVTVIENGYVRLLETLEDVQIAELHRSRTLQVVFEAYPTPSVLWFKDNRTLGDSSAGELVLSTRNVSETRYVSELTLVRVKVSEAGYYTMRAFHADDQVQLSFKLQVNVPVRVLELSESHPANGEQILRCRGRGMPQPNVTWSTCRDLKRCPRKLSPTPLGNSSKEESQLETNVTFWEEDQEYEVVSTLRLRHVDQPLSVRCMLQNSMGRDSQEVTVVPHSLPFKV
Assay: binding to immobilized ectodomain
B1 showed a Kd of 276 nM.
Binder B2 has a Kd of 12.2 nM.
Work on B3 yielded a Kd of 25.5 nM.
In the case of B4, the Kd is reported as 31 nM.
B5 was tested, and the Kd was 6 nM.

These binders were tested against full-length human PDGFRB on cells (human, UniProt P09619 33-1106) (assay: cell binding; SCC-hPDGFRβ cells).
For B6, the Kd was 7.8 nM.
With B7 the Kd was 10.4 nM.

Target: T2, full-length rat PDGFRB on cells (rat, UniProt Q05030 32-1097)
T2 chain: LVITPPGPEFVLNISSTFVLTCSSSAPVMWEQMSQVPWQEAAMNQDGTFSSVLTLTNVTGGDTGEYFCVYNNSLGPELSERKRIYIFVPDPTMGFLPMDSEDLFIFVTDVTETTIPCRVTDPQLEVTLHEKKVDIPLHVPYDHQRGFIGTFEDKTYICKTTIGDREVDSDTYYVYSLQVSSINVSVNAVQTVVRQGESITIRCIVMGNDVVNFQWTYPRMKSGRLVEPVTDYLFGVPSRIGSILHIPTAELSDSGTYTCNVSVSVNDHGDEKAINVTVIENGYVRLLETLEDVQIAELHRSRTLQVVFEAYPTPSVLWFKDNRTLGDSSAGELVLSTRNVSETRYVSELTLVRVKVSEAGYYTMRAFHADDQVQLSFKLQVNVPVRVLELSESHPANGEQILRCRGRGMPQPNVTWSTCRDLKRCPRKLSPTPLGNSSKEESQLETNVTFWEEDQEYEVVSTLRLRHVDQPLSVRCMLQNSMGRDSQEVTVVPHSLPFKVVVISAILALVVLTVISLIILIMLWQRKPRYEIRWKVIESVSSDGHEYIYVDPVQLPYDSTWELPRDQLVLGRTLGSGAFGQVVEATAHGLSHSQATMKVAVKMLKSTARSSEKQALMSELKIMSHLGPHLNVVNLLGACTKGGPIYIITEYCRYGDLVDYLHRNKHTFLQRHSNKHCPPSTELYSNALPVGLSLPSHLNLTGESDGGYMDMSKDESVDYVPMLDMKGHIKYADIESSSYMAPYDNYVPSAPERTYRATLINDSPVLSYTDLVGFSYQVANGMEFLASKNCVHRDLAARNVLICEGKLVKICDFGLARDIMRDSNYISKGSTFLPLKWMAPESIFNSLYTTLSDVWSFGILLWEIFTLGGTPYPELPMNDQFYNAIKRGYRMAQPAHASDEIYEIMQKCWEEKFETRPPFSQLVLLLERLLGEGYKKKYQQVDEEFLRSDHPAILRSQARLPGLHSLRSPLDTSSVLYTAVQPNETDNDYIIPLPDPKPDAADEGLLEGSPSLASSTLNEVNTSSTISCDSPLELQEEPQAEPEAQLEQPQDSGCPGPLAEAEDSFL
Assay: cell binding; SCC-rPDGFRβ cells
B1 gave a Kd of 31.8 nM.
For B8, the Kd was 0.3 nM.
For B4, the Kd was 76.6 nM.
B5 showed a Kd of 0.5 nM.

Target: T3, recombinant hPDGFRB ectodomain (human, UniProt P09619 33-532)
T3 chain: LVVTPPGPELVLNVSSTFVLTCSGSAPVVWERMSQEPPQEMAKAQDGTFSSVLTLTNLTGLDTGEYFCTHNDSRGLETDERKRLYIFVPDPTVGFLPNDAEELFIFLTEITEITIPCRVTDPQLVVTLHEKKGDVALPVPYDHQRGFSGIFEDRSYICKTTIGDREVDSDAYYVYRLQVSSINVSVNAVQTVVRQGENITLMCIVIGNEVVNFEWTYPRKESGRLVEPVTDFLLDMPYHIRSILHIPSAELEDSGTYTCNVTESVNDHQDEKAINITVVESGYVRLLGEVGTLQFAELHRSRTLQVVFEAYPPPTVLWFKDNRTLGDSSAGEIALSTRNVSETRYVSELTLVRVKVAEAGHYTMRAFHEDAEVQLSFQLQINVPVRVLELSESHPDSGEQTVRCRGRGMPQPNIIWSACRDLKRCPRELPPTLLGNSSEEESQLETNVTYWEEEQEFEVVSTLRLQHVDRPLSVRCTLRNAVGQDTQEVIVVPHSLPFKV
Assay: binding to immobilized ectodomain
Binder B9 has a Kd of 6.2 nM.
In the case of B10, the Kd is reported as 8.6 nM.
For B11, the Kd was 9.2 nM.
With B12 the Kd was 3.8 nM.
B6 showed a Kd of 20.4 nM.
For B7, the Kd was 9.3 nM.

Source: patent US20240325562A1 (published 2024)
